“Also recorded” adds a separate entry of the source.

The test system of assay [1] is HMGB1 domains (A box, B box, acidic tail). The assay can be described thus: Immunofluorescence of HMGB1-GFP domain constructs upon protein VII-HA expression. The format is cell-based. The settings on record: A549 cells, 2 days after transfection. The protocol: (§1) Cells were grown on glass coverslips in 24-well plates and either infected or induced with doxycycline (0.2 μg/mL). Cells were harvested for immunofluorescence at the indicated time points, washed in phosphate-buffered saline (PBS), fixed in 4% paraformaldehyde for 15 minutes and post-fixed with 100% ice-cold methanol for 5 minutes. Coverslips were then blocked and stained as described (Lilley et al. (2011) PLoS Pathog., 7:e1002084) and mounted using ProLong Gold Antifade Reagent (Life Technologies). Immunofluorescence was visualized using a Zeiss LSM Confocal microscope and ZEN 2011 software. Images were processed using ImageJ and assembled with Adobe CS6. All scale bars show in the Figures are 10 μm unless otherwise stated.
FIG. 8A provides a schematic of the different GFP constructs expressing distinct HMGB1 domains. […] Immunofluorescence of the HMGB1-GFP constructs 2 days after transfection of A549s cells under control conditions or upon expression of Ad5 protein VII-HA is shown in FIG. 8B. […] Only full-length HMGB1 and the HMGB1 A box are relocalized upon expression of protein VII. […] Next we tested the immobilization of this construct in chromatin upon protein VII expression.

Assay [2] has as its system HMGB1 full-length and domains. The assay can be described thus: In vitro GST pull down of recombinant GST-HMGB1 constructs with protein VII. Type of assay: binding.
In assay [3] the target is T1, HMGB1 full-length and domains (Homo sapiens, UniProt P09429).
T1 construct: recombinant GST constructs encoding full-length HMGB1 or distinct HMGB1 domains
T1 sequence (P09429 1-215): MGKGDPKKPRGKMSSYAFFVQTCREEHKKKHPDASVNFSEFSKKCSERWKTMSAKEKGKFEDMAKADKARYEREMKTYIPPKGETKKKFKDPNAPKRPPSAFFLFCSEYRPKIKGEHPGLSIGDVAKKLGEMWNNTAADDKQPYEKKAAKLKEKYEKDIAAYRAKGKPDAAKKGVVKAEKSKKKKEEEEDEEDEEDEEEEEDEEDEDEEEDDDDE
The description is as above. The format is binding.

For assay [4], the target named is T2, HMGB1 (Homo sapiens, UniProt P09429).
T2 sequence (P09429 1-215): T1 sequence (P09429 1-215)
Nature of the assay: Immunofluorescence of HMGB1 localization in A549 cells. The arrangement: endogenous in cells; host or cells: A549. The format is cell-based. The procedure:
as §1

In another assay the test system is LPS induced lung injury. Nature of the assay: Murine model of LPS induced lung injury, BAL fluid analysis. Type of assay: in vivo, mouse. As to conditions: 24 hours after LPS exposure, versus mice expressing GFP. The protocol:
All mice were housed in SPF conditions. All studies in mice were carried out in accordance with the recommendations in the Guide for the Care and Use of Laboratory Animals of the National Institutes of Health. C57BL/6J male mice aged 8-10 weeks were used for experiments. Mice were sedated with ketamine and xylazine. Once sedated, mice underwent orotrachial intubation, as described (Das et al. (2013) J. Vis. Exp., (73):e50318), with a 20G angiocatheter from BD (Franklin Lakes, N.J.). Mice subsequently received 5e10 GC of recombinant adenovirus expressing VII-GFP or GFP purified as described above. Four days after infection, mice were exposed to aerosolized LPS, 3 mg/mL for 30 minutes as described (Jeyaseelan et al. (2004) Infect. Immun., 72:7247-7256). One day after LPS exposure, BAL, and lung tissue were harvested as detailed (Nick et al. (2000) J. Immunol., 164:2151-2159) and examined for HMGB1 content (ELISA, Chondrex 6010) and neutrophil count (hematoxylin and eosin stain kit EMD 65044/93). Immunostaining was carried out using standard methods. A minimum of four biological replicates were used for each condition studied. Mice were assigned a random number and color at the start of the experiment and were randomized. Technicians carrying out the experiments were blinded to the identity of the samples. Tissue samples were assigned a random study number such that the technician performing the analysis was blinded. Unblinding for the purpose of data analysis occurred only after all data had been collected.

In the next assay the test system is nucleosomes. The assay can be described thus: Nucleosome in vitro binding and MNase digestion assays. The protocol:
Gel shift and MNase digestion assays were carried out as described (Falk et al. (2015) Science 348:699-703; Hasson et al. (2013) Nat. Struct. Mol. Biol., 20:687-695; Sekulic et al. (2010) Nature 467:347-351). Briefly, nucleosomes were reconstituted by incubating purified recombinant histones with ‘601’ DNA of either 195 or 147 bp over a series of dialysis. Recombinant protein VII-His was then combined with nucleosomes at various molar ratios, incubated at room temperature for 15 minutes, and analyzed by native gel electrophoresis. Complexes were also digested with MNase (Affymetrix) by addition of 1 unit per μg of DNA for 147 bp nucleosome experiments and 0.1 unit per μg of DNA for 195 bp nucleosome experiments, incubated at 22° C. for varying amounts of time followed by the addition of EGTA and guanidine thiocyanate to stop the reaction. The DNA fragments were then purified using a MinElute PCR purification kit (Qiagen) and analyzed on an Agilent 2100 Bioanalyzer as described (Falk et al. (2015) Science 348:699-703).

Assay [5] concerns the target T2, HMGB1. Nature of the assay: GFP immunoprecipitation from A549 cells transfected with protein VII-GFP constructs. The format is cell-based. The arrangement: endogenous in cells; host or cells: A549. As to conditions: A549 cells transfected 24 hours. The protocol:
We further narrowed down this binding region through expression of protein VII peptides tagged with GFP. […] Cellular fractionation of A549 cells transfected for 24 hours with GFP and the different protein VII constructs is shown in FIG. 7C.

B1: protein VII: mature protein VII of human adenovirus type 5 (SEQ ID NO:1), expressed in cells, mostly with C-terminal HA tag (protein)
chain: AKKRSDQHPVRVRGHYRAPWGAHKRGRTGRTTVDDAIDAVVEEARNYTPTPPPVSTVDAAIQTVVRGARRYAKMKRRRRRVARRHRRRPGTAAQRAAAALLNRARRTGRRAAMRAARRLAAGIVTVPPRSRRRAAAAAAAAISAMTQGRRGNVYWVRDSVSGLRVPVRTRPPRN
modifications: C-terminal HA tag; Human adenovirus 5
On to B1, for which the “Relocalization of HMGB1 A box” value in assay [1] is “relocalizes”. Also, in assay [2], the “Binding to HMGB1 acidic tail (C-terminus) in vitro” value was “binds”. In addition, in assay [3], the “Pull-down by full-length HMGB1 construct in vitro” value is “able to also pull-down protein VII”. The “Relocalization of HMGB1 (immunofluorescence)” value with HMGB1 [4] is given as “relocalization of HMGB1”. In the assay on LPS induced lung injury, the “HMGB1 in BAL fluid” value is “significantly less HMGB1” and the “Neutrophils in BAL fluid” value is listed as “fewer neutrophils”. In addition, in the assay with nucleosomes (147 bp nucleosome core particle), the “Protection from MNase digestion” value is reported as “completely blocks digestion; also recorded: protects against MNase digestion”. Besides, in the assay on nucleosomes (195 bp nucleosomes), the “Nucleosome mobility on native gel electrophoresis” value was “changed nucleosome mobility” and the “Point at which MNase digestion of nucleosomal DNA pauses” value is 165 bp. Further, the “Pull-down of HMGB1 by GFP immunoprecipitation” value with HMGB1 [5] is listed as “able to pull-down HMGB1”.

(Values after patent US20190276499A1, “Protein VII Fragments and Methods of Use Thereof for the Treatment of Inflammatory Disorders” (priority 2016, published 2019).)
